Data reported in patent US20140134132A1.

How the values were obtained:
Test in all cases: cell-based or functional assay
[1] = molecular target: multidrug resistance associated protein 2 (human) (UniProt Q92887)
[2] = molecular target: organic anion transporting polypeptide 1B1 (UniProt Q9Y6L6)
CYP3A4 = CYP3A4 (UniProt P08684)
CYP3A4, sequence (P08684 whole entry): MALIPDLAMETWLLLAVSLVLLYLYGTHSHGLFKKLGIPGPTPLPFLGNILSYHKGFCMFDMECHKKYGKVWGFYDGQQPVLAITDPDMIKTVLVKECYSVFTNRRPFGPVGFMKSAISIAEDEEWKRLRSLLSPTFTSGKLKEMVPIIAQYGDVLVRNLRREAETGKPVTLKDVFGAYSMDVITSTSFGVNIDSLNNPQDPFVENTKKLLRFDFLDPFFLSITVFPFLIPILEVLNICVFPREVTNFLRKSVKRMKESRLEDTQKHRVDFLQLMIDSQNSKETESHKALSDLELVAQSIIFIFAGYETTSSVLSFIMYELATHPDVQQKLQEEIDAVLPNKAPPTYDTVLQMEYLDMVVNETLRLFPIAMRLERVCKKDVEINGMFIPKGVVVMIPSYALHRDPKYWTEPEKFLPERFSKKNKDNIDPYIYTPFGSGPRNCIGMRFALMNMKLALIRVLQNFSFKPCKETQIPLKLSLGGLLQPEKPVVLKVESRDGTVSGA

organic anion transporting polypeptide 1B1, sequence (Q9Y6L6 whole entry): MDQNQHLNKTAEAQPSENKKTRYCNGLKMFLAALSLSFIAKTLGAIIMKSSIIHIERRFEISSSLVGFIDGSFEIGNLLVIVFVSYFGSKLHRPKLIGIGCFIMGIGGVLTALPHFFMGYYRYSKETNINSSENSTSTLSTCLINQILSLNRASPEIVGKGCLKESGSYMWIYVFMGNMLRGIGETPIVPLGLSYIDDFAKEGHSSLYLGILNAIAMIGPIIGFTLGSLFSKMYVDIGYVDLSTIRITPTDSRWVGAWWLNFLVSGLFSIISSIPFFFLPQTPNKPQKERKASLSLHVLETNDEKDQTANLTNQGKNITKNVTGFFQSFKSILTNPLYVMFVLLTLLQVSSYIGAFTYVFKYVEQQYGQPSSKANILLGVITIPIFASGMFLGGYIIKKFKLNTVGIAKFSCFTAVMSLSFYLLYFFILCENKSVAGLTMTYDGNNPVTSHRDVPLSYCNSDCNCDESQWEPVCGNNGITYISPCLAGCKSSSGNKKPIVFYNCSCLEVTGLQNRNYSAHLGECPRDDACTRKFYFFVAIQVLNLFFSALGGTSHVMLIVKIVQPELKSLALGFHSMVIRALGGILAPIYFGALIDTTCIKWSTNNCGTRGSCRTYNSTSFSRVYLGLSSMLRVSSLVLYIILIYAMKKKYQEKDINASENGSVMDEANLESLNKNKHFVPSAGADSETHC
multidrug resistance associated protein 2 (human), sequence (Q92887 whole entry): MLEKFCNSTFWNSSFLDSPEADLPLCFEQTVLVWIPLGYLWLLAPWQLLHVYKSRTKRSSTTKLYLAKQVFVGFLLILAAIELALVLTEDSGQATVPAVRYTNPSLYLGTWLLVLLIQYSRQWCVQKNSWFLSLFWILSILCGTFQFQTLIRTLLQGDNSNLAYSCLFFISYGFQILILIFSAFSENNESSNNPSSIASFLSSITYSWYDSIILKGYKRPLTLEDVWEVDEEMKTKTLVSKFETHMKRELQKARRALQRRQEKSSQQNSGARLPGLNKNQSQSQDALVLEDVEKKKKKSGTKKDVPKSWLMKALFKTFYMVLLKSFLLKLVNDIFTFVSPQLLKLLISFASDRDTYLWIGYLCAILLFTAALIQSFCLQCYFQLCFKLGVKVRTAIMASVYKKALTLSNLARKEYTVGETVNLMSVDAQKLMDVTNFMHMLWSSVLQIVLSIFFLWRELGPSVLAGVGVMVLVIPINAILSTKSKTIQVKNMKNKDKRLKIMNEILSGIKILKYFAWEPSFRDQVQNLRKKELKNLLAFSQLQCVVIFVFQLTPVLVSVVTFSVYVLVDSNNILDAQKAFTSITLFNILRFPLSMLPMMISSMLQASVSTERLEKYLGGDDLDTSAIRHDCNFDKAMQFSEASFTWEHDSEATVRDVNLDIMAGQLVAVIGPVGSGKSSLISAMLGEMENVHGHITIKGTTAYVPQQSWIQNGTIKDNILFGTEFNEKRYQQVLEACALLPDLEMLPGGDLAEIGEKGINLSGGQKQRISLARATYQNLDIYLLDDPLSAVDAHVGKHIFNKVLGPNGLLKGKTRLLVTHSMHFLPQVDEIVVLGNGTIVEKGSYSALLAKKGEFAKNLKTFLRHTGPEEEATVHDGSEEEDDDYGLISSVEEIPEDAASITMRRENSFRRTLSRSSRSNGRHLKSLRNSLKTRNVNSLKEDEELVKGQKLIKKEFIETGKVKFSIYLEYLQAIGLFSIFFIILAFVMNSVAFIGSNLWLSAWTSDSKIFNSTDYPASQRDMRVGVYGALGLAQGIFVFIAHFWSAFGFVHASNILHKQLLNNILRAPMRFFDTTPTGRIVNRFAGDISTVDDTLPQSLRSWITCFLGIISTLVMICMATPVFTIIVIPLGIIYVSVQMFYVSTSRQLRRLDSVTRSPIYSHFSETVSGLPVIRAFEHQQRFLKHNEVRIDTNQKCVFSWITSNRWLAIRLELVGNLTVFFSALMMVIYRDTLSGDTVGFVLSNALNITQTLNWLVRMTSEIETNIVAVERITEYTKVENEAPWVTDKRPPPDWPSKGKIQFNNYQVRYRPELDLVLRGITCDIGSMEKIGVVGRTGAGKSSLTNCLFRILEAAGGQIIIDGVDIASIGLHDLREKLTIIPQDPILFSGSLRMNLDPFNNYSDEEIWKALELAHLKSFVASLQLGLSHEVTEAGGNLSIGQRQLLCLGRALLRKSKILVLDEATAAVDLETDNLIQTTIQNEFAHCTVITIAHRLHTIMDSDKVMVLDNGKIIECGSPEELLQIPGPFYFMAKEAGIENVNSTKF

Substance	MRP2 IC50 [1] [µM]	OATP1B13 IC50 [2] [µM]	NIM TDI kinact/Ki (CYP3A4)
3-[D-Ala]-4-[(2S,3S)-4-(2-(1,1-dioxidothiomorpholino)ethoxy)-3-methyl-2-(methylamino)butanoyl]-cyclosporin (peptide)	28	3	–
3-[D-Ala]-4-[(2S,3S)-4-methoxy-3-methyl-2-(methylamino)butanoyl]-cyclosporin (peptide)	14	5.1	–
3-[D-Ala]-4-[(2S,3S)-3-methyl-2-(methylamino)-4-(methylsulfonyl)butanoyl]-cyclosporin (peptide)	9	1.4	–
3-[D-Ala]-4-[(2S,3S)-4-(2-hydroxy-2-methylpropoxy)-3-methyl-2-(methylamino)butanoyl]-cyclosporin (peptide)	–	1.8	0.0015
3-[D-Ala]-4-[(2S,3S)-3-methyl-2-(methylamino)-4-(2-((4-methylpiperazine-1-carbonyl)oxy)ethoxy)butanoyl]-cyclosporin (peptide)	30	8.7	–
3-[D-Ala]-4-[(2S,3R)-5-methoxy-3-methyl-2-(methylamino)pentanoyl]-cyclosporin (peptide)	13	2.3	–
3-[D-Ala]-4-[(2S,3S)-3-methyl-2-(methylamino)-4-((4-methylpiperazine-1-carbonyl)oxy)butanoyl]-cyclosporin (peptide)	21	6.7	–
3-[D-Ala]-4-[(2S,3S)-3-methyl-2-(methylamino)-4-(2-morpholinoethoxy)butanoyl]-cyclosporin (peptide)	23	7.6	–
3-[D-Ala]-4-[(2S,3R)-3-methyl-2-(methylamino)-4-(4-methylpiperazin-1-yl)butanoyl]-cyclosporin (peptide)	–	7.9	–
3-[D-Ala]-4-[(2S,3R)-4-(4-acetylpiperazin-1-yl)-3-methyl-2-(methylamino)butanoyl]-cyclosporin (peptide)	–	2.3	–
3-[D-Ala]-4-[(2S,3S)-4-((4-ethylpiperazine-1-carbonyl)oxy)-3-methyl-2-(methylamino)butanoyl]-cyclosporin (peptide)	–	1.9	–
3-[D-Ala]-4-[(2S,3R)-4-(3,3-difluoropyrrolidin-1-yl)-3-methyl-2-(methylamino)butanoyl]-cyclosporin (peptide)	–	1.4	–
3-[D-Ala]-4-[(2S,3R)-3-methyl-2-(methylamino)-4-(2-oxa-6-azaspiro[3.4]octan-6-yl)butanoyl]-cyclosporin (peptide)	–	2	–
3-[(R)-2-(methylamino)butanoic acid]-4-[(2S,3S)-4-methoxy-3-methyl-2-(methylamino)butanoyl]-cyclosporin (peptide)	–	2.1	–
3-[D-Ala]-4-[(2S,3R)-4-methoxy-3-methyl-2-(methylamino)butanoyl]-cyclosporin (peptide)	15	1.9	5 M⁻¹ s⁻¹
3-[D-Ala]-4-[(2S,3R)-5-(4-cyclobutylpiperazin-1-yl)-3-methyl-2-(methylamino)pentanoyl]-cyclosporin (peptide)	–	2.1	–
3-[D-Ala]-4-[(2S,3S)-3-methyl-2-(methylamino)-4-((S)-3-oxotetrahydro-1H-oxazolo[3,4-a]pyrazin-7(3H)-yl)butanoyl]-cyclosporin (peptide)	–	1.4	–
3-[D-Ala]-4-[(2S,3R)-4-(8-oxa-3-azabicyclo[3.2.1]octan-3-yl)-3-methyl-2-(methylamino)butanoyl]-cyclosporin (peptide)	–	1.7	–
3-[D-Ala]-4-[(2S,3S)-4-(((S)-4-ethylmorpholin-2-yl)methoxy)-3-methyl-2-(methylamino)butanoyl]-cyclosporin (peptide)	–	1.9	0.0004
3-[D-Ala]-4-[(2S,3S)-4-(2-((S)-3-methoxypyrrolidin-1-yl)ethoxy)-3-methyl-2-(methylamino)butanoyl]-cyclosporin (peptide)	–	5	–
3-[D-Ala]-4-[(2S,3R)-4-((4-ethylpiperazine-1-carbonyl)oxy)-3-methyl-2-(methylamino)butanoyl]-cyclosporin (peptide)	–	2.2	–
3-[D-Ala]-4-[(2S,3R)-6-(4-ethylpiperazin-1-yl)-3-methyl-2-(methylamino)hexanoyl]-cyclosporin (peptide)	–	2.6	–
3-[(R)-3-methyl-2-(methylamino)butanoyl]-4-[(2S,3S)-4-methoxy-3-methyl-2-(methylamino)butanoyl]-cyclosporin (peptide)	–	2	–

Substance	MRP2 IC50 [1] [µM]	OATP1B13 IC50 [2] [µM]	NIM TDI kinact/Ki (CYP3A4)
3-[D-Ala]-4-[(2S,3S)-4-(2-(4-cyclobutylpiperazin-1-yl)ethoxy)-3-methyl-2-(methylamino)butanoyl]-cyclosporin (peptide)	–	3.5	0.0007
3-[D-Ala]-4-[(2S,3S)-4-(2-(4-isopropylpiperazin-1-yl)ethoxy)-3-methyl-2-(methylamino)butanoyl]-cyclosporin (peptide)	–	4.4	–
3-[D-Ala]-4-[(2S,3R)-3-methyl-6-((methyl(1-methylpiperidin-4-yl)carbamoyl)oxy)-2-(methylamino)hexanoyl]-cyclosporin (peptide)	–	3.7	–
3-[(R)-5-hydroxy-2-(methylamino)pentanoyl]-4-[(2S,3S)-3-methyl-2-(methylamino)-4-(methylsulfonyl)butanoyl]-cyclosporin (peptide)	–	2.7	–
3-[D-Ala]-4-[(2S,3R)-3-methyl-2-(methylamino)-5-(piperidin-1-yl)pentanoyl]-cyclosporin (peptide)	–	2.3	–
3-[D-Ala]-4-[(2S,3R)-3-methyl-2-(methylamino)-4-(3-oxopiperazin-1-yl)butanoyl]-cyclosporin (peptide)	–	2.1	–
3-[D-Ala]-4-[(2S,3S)-4-(2-(4-isopropylpiperazin-1-yl)-2-oxoethoxy)-3-methyl-2-(methylamino)butanoyl]-cyclosporin (peptide)	–	8	–
3-[D-Ala]-4[(2S,3R)-2-Amino-4-(4-isopropyl-piperazin-1-yl)-butanoyl]-cyclosporin (peptide)	–	2.44	–
3-[D-Ala]-4-[(2S,3R)-3-methyl-2-(methylamino)-4-morpholinobutanoyl]-cyclosporin (peptide)	18	8.2	–
3-[D-Ala]-4-[(2S,3R)-5-(3-methoxyazetidin-1-yl)-3-methyl-2-(methylamino)pentanoyl]-cyclosporin (peptide)	–	1.4	–
3-[D-Ala]-4-[(2S,3R)-6-(4-(2-methoxyethyl)piperazin-1-yl)-3-methyl-2-(methylamino)hexanoyl]-cyclosporin (peptide)	–	2.2	–
3-[D-Ala]-4-[(2S,3R)-3-methyl-2-(methylamino)-4-(1,4-oxazepan-4-yl)butanoyl]-cyclosporin (peptide)	–	1.7	–
3-[D-Ala]-4-[(2S,3S)-3-methyl-2-(methylamino)-4-(2-((S)-3-methylmorpholino)ethoxy)butanoyl]-cyclosporin (peptide)	–	4.8	–
3-[D-Ala]-4-[(2S,3R)-5-(4-(2-methoxyethyl)piperazin-1-yl)-3-methyl-2-(methylamino)pentanoyl]-cyclosporin (peptide)	–	9.1	–
3-[D-Ala]-4-[(2S,3R)-3-methyl-2-(methylamino)-4-(3-(trifluoromethyl)-5,6-dihydro-[1,2,4]triazolo[4,3-a]pyrazin-7(8H)-yl)butanoyl]-cyclosporin (peptide)	–	1	–
3-[D-Ala]-4-[(2S,3R)-6-hydroxy-3,6-dimethyl-2-(methylamino)heptanoyl]-cyclosporin (peptide)	–	2.2	–
3-[D-Ala]-4-[(2S,3R)-3-methyl-2-(methylamino)-5-morpholinopentanoyl]-cyclosporin (peptide)	–	3.9	–
3-[D-Ala]-4-[(2S,3R)-3-methyl-2-(methylamino)-4-(4-(methylsulfonyl)piperazin-1-yl)butanoyl]-cyclosporin (peptide)	13	4.8	–
3-[D-Ala]-4-[(2S,3R)-3-methyl-2-(methylamino)-6-morpholinohexanoyl]-cyclosporin (peptide)	–	6.9	0.001
3-[D-Ala]-4-[(2S,3S)-3-methyl-4-(2-(methyl(2,2,2-trifluoroethyl)amino)ethoxy)-2-(methylamino)butanoyl]-cyclosporin (peptide)	–	1.9	–
3-[D-Ala]-4-[(2S,3R)-6-(8-oxa-3-azabicyclo[3.2.1]octan-3-yl)-3-methyl-2-(methylamino)-6-oxohexanoyl]-cyclosporin (peptide)	–	1.9	–
3-[D-Ala]-4-[(2S,3R)-4-cyano-3-methyl-2-(methylamino)butanoyl]-cyclosporin (peptide)	–	0.9	–
3-[D-Ala]-4[(2S,3S)-2-Amino-4-(4-cyclobutyl-piperazin-1-yl)-3-methyl-butanoyl]-cyclosporin (peptide)	–	4	–
